The text below walks through data of the Human Domainome abundance scans (Beltran et al. 2025).

± gives the uncertainty stated by the source.

This data set can be described thus: abundance fitness (aPCA) (normalised: wild type 0, dead -1); higher = more abundant; growth selection in yeast, the domain comes from the species named. The settings on record: Homo sapiens.
For “Scaffold attachment factor B2 Q69A, Q14151”, the abundance fitness is -0.094 ± 0.13. Then “Scaffold attachment factor B2 Q69C, Q14151”, with -0.307 ± 0.2. In the case of “Scaffold attachment factor B2 Q69F, Q14151” it was -0.656 ± 0.2; in that of “Scaffold attachment factor B2 Q69G, Q14151”, 0.174 ± 0.095; in that of “Scaffold attachment factor B2 Q69H, Q14151”, -0.143 ± 0.2.

For “Scaffold attachment factor B2 Q69I, Q14151”, the abundance fitness was -0.262 ± 0.11.

Regarding “Scaffold attachment factor B2 Q69K, Q14151”, the abundance fitness is -0.164 ± 0.1. Turning to “Scaffold attachment factor B2 Q69L, Q14151”, the abundance fitness was -0.133 ± 0.11.

With “Scaffold attachment factor B2 Q69M, Q14151”, the abundance fitness is -0.27 ± 0.19. As for “Scaffold attachment factor B2 Q69N, Q14151”, the abundance fitness was -0.717 ± 0.32. With “Scaffold attachment factor B2 Q69P, Q14151”, the abundance fitness is -0.227 ± 0.15. In the case of “Scaffold attachment factor B2 Q69R, Q14151”, the abundance fitness was -0.104 ± 0.074. For “Scaffold attachment factor B2 Q69S, Q14151”, the abundance fitness was -0.077 ± 0.11. In the case of “Scaffold attachment factor B2 Q69T, Q14151”, the abundance fitness was -0.261 ± 0.12. Take “Scaffold attachment factor B2 Q69V, Q14151”: the abundance fitness was -0.175 ± 0.11. For the substance “Scaffold attachment factor B2 Q69W, Q14151”, the abundance fitness is -0.285 ± 0.13. In the case of “Scaffold attachment factor B2 R28A, Q14151” it was -0.139 ± 0.094. In the case of “Scaffold attachment factor B2 R28C, Q14151” it was -0.271 ± 0.15. Substance “Scaffold attachment factor B2 R28D, Q14151” showed an abundance fitness of 0.131 ± 0.081. In the case of “Scaffold attachment factor B2 R28E, Q14151” it was 0.088 ± 0.1.

Turning to “Scaffold attachment factor B2 R28G, Q14151”, the abundance fitness turned out to be 0.05 ± 0.071. In turn, “Scaffold attachment factor B2 R28H, Q14151” displayed an abundance fitness of 0.063 ± 0.2. Turning to “Scaffold attachment factor B2 R28I, Q14151”, the abundance fitness was -0.342 ± 0.18. On to “Scaffold attachment factor B2 R28K, Q14151”, for which the abundance fitness is -0.033 ± 0.14.

With “Scaffold attachment factor B2 R28L, Q14151”, the abundance fitness is -0.176 ± 0.11. Then “Scaffold attachment factor B2 R28N, Q14151”, with -0.005 ± 0.15. Then “Scaffold attachment factor B2 R28P, Q14151”, with -0.437 ± 0.22; and “Scaffold attachment factor B2 R28T, Q14151”, with -0.045 ± 0.12; and “Scaffold attachment factor B2 R28W, Q14151”, with -0.14 ± 0.086. For “Scaffold attachment factor B2 R28Y, Q14151”, the abundance fitness was -0.377 ± 0.18. On to “Scaffold attachment factor B2 R29C, Q14151”, for which the abundance fitness is -0.474 ± 0.31. Turning to “Scaffold attachment factor B2 R29D, Q14151”, the abundance fitness worked out at 0.089 ± 0.093. In turn, “Scaffold attachment factor B2 R29E, Q14151” gave an abundance fitness of 0.113 ± 0.095.

As to “Scaffold attachment factor B2 R29F, Q14151”, the abundance fitness was -0.237 ± 0.15. Then “Scaffold attachment factor B2 R29G, Q14151”, with -0.127 ± 0.074. Consider “Scaffold attachment factor B2 R29H, Q14151”, for which the abundance fitness is -0.099 ± 0.15. In the case of “Scaffold attachment factor B2 R29I, Q14151” it was -0.211 ± 0.15; in that of “Scaffold attachment factor B2 R29K, Q14151”, -0.038 ± 0.099.

“Scaffold attachment factor B2 R29L, Q14151”: the abundance fitness is -0.288 ± 0.07. With “Scaffold attachment factor B2 R29M, Q14151”, the abundance fitness is -0.288 ± 0.13. “Scaffold attachment factor B2 R29N, Q14151”: the abundance fitness was -0.016 ± 0.11. On to “Scaffold attachment factor B2 R29P, Q14151”, for which the abundance fitness is -0.117 ± 0.13. In the case of “Scaffold attachment factor B2 R29Q, Q14151”, the abundance fitness was -0.162 ± 0.1. With “Scaffold attachment factor B2 R29S, Q14151”, the abundance fitness is -0.097 ± 0.1. “Scaffold attachment factor B2 R29T, Q14151”: the abundance fitness is -0.01 ± 0.16. As to “Scaffold attachment factor B2 R29V, Q14151”, the abundance fitness is -0.233 ± 0.08. Take “Scaffold attachment factor B2 R29W, Q14151”: the abundance fitness was -0.246 ± 0.083.

Turning to “Scaffold attachment factor B2 R29Y, Q14151”, the abundance fitness was -0.4 ± 0.12.

Take “Scaffold attachment factor B2 R34A, Q14151”: the abundance fitness stood at 0.049 ± 0.079. As to “Scaffold attachment factor B2 R34D, Q14151”, the abundance fitness was -0.055 ± 0.12. In the case of “Scaffold attachment factor B2 R34F, Q14151” it was -0.673 ± 0.23. The substance “Scaffold attachment factor B2 R34G, Q14151” returned an abundance fitness of 0.012 ± 0.077. In the case of “Scaffold attachment factor B2 R34H, Q14151”, the abundance fitness is -0.205 ± 0.13. As for “Scaffold attachment factor B2 R34I, Q14151”, the abundance fitness was -0.75 ± 0.15. For the substance “Scaffold attachment factor B2 R34K, Q14151”, the abundance fitness is -0.184 ± 0.12. Then “Scaffold attachment factor B2 R34L, Q14151”, with -0.473 ± 0.089; and “Scaffold attachment factor B2 R34M, Q14151”, with -0.31 ± 0.1. “Scaffold attachment factor B2 R34N, Q14151”: the abundance fitness was -0.456 ± 0.33. Take “Scaffold attachment factor B2 R34P, Q14151”: the abundance fitness came out at 0.02 ± 0.13. The substance “Scaffold attachment factor B2 R34Q, Q14151” showed an abundance fitness of 0.003 ± 0.081. In the case of “Scaffold attachment factor B2 R34S, Q14151”, the abundance fitness amounted to 0.14 ± 0.087.

Substance “Scaffold attachment factor B2 R34T, Q14151” returned an abundance fitness of 0.157 ± 0.099. In the case of “Scaffold attachment factor B2 R34V, Q14151” it was -0.45 ± 0.087; in that of “Scaffold attachment factor B2 R34W, Q14151”, -0.679 ± 0.086; in that of “Scaffold attachment factor B2 R34Y, Q14151”, -0.616 ± 0.12. In the case of “Scaffold attachment factor B2 R39G, Q14151” it was -0.606 ± 0.14. In the case of “Scaffold attachment factor B2 R45C, Q14151”, the abundance fitness was -0.686 ± 0.14.

In the case of “Scaffold attachment factor B2 R45D, Q14151”, the abundance fitness is -0.52 ± 0.13. For the substance “Scaffold attachment factor B2 R45E, Q14151”, the abundance fitness was -0.411 ± 0.097. Then “Scaffold attachment factor B2 R45F, Q14151”, with -0.784 ± 0.21. For the substance “Scaffold attachment factor B2 R45G, Q14151”, the abundance fitness is -0.486 ± 0.08. In the case of “Scaffold attachment factor B2 R45H, Q14151”, the abundance fitness is -0.721 ± 0.23. On to “Scaffold attachment factor B2 R45K, Q14151”, for which the abundance fitness was -0.374 ± 0.12.

Turning to “Scaffold attachment factor B2 R45L, Q14151”, the abundance fitness is -0.201 ± 0.078. For “Scaffold attachment factor B2 R45M, Q14151”, the abundance fitness is -0.66 ± 0.29. In the case of “Scaffold attachment factor B2 R45N, Q14151” it was -0.99 ± 0.24; in that of “Scaffold attachment factor B2 R45P, Q14151”, -0.682 ± 0.11; in that of “Scaffold attachment factor B2 R45Q, Q14151”, -0.326 ± 0.091.

Turning to “Scaffold attachment factor B2 R45S, Q14151”, the abundance fitness is -0.509 ± 0.092. Then “Scaffold attachment factor B2 R45T, Q14151”, with -0.576 ± 0.11.

“Scaffold attachment factor B2 R45V, Q14151”: the abundance fitness is -0.565 ± 0.095.

As to “Scaffold attachment factor B2 R45W, Q14151”, the abundance fitness is -0.709 ± 0.085. For “Scaffold attachment factor B2 R59A, Q14151”, the abundance fitness was -0.465 ± 0.092.

Consider “Scaffold attachment factor B2 R59C, Q14151”, for which the abundance fitness is -0.583 ± 0.19. As for “Scaffold attachment factor B2 R59D, Q14151”, the abundance fitness is -0.54 ± 0.24. Turning to “Scaffold attachment factor B2 R59E, Q14151”, the abundance fitness was -0.294 ± 0.099. Then “Scaffold attachment factor B2 R59G, Q14151”, with -0.23 ± 0.11; and “Scaffold attachment factor B2 R59H, Q14151”, with -0.474 ± 0.22; and “Scaffold attachment factor B2 R59I, Q14151”, with -1.2 ± 0.22. Turning to “Scaffold attachment factor B2 R59K, Q14151”, the abundance fitness was -0.41 ± 0.19. As to “Scaffold attachment factor B2 R59L, Q14151”, the abundance fitness is -0.771 ± 0.1.

As to “Scaffold attachment factor B2 R59M, Q14151”, the abundance fitness is -0.643 ± 0.12. With “Scaffold attachment factor B2 R59N, Q14151”, the abundance fitness was -0.623 ± 0.32. As for “Scaffold attachment factor B2 R59P, Q14151”, the abundance fitness is -0.249 ± 0.094. On to “Scaffold attachment factor B2 R59Q, Q14151”, for which the abundance fitness is -0.595 ± 0.097.

Take “Scaffold attachment factor B2 R59S, Q14151”: the abundance fitness is -0.322 ± 0.087.
